# Laboratory results taken from patent US20260049138A1 (Chugai, published 2026).
# Numbering of substitutions follows the chain as printed. Names and notes keep the numbering of the source.
# B1: CE115HA000 G100bE one-arm antibody (antibody, human IgG1, kappa, L234A L235A, N297A, name in Kabat numbering)
# heavy: QVQLVESGGGVVQPGRSLRLSCAASGFTFSNAWMHWVRQAPGKGLEWVAQIKAKSNNYATYYAESVKGRFTISRDDSKNSLYLQMNSLKTEDTAVYYCRYVHYGAYYEVDAWGQGTTVTVSSASTKGPSVFPLAPSSKSTSGGTAALGCLVKDYFPEPVTVSWNSGALTSGVHTFPAVLQSSGLYSLSSVVTVPSSSLGTQTYICNVNHKPSNTKVDKKVEPKSCDKTHTCPPCPAPEAAGGPSVFLFPPKPKDTLMISRTPEVTCVVVDVSHEDPEVKFNWYVDGVEVHNAKTKPREEQYASTYRVVSVLTVLHQDWLNGKEYKCKVSNKALPAPIEKTISKAKGQPREPQVYTLPPSRCELTKNQVSLSCAVKGFYPSDIAVEWESNGQPENNYKTTPPVLDSDGSFFLVSKLTVDKSRWQQGNVFSCSVMHEALHNHYTQKSLSLSPDYKDDDDK
# chain: EPKSSDKTHTCPPCPAPELLGGPSVFLFPPKPKDTLMISRTPEVTCVVVDVSHEDPEVKFNWYVDGVEVHNAKTKPREEQYNSTYRVVSVLTVLHQDWLNGKEYKCKVSNKALPAPIEKTISKAKGQPREPQVCTLPPSRDELTKNQVSLWCLVKGFYPSDIAVEWESNGQPENNYKTTPPVLDSDGSFFLYSKLTVDKSRWQQGNVFSCSVMHEALHNRYTQKSLSLSP
# light: DIVMTQSPLSLPVTPGEPASISCRSSQSLVHSNRNTYLHWYQQKPGQAPRLLIYKVSNRFSGVPDRFSGSGSGTDFTLKISRVEAEDVGVYYCGQGTQVPYTFGQGTKLEIKRTVAAPSVFIFPPSDEQLKSGTASVVCLLNNFYPREAKVQWKVDNALQSGNSQESVTEQDSKDSTYSLSSTLTLSKADYEKHKVYACEVTHQGLSSPVTKSFNRGEC
# B2: CE115HA000 G100bF one-arm antibody (antibody, human IgG1, kappa, L234A L235A, N297A, name in Kabat numbering)
# heavy: B1 heavy with E108F
# chain: B1 chain
# light: B1 light
# B3: CE115HA000 G100bL one-arm antibody (antibody, human IgG1, kappa, L234A L235A, N297A, name in Kabat numbering)
# heavy: B1 heavy with E108L
# chain: B1 chain
# light: B1 light
# B4: CE115HA000 G100bS one-arm antibody (antibody, human IgG1, kappa, L234A L235A, N297A, name in Kabat numbering)
# heavy: B1 heavy with E108S
# chain: B1 chain
# light: B1 light
# B5: CE115HA000 G100bY one-arm antibody (antibody, human IgG1, kappa, L234A L235A, N297A, name in Kabat numbering)
# heavy: B1 heavy with E108Y
# chain: B1 chain
# light: B1 light
# B6: CE115HA000 H35D one-arm antibody (antibody, human IgG1, kappa, L234A L235A, N297A, name in Kabat numbering)
# heavy: B1 heavy with H35D, E108G
# chain: B1 chain
# light: B1 light
# B7: CE115HA000 H35E one-arm antibody (antibody, human IgG1, kappa, L234A L235A, N297A, name in Kabat numbering)
# heavy: B1 heavy with H35E, E108G
# chain: B1 chain
# light: B1 light
# B8: CE115HA000 H35F one-arm antibody (antibody, human IgG1, kappa, L234A L235A, N297A, name in Kabat numbering)
# heavy: B1 heavy with H35F, E108G
# chain: B1 chain
# light: B1 light
# B9: CE115HA000 H35G one-arm antibody (antibody, human IgG1, kappa, L234A L235A, N297A, name in Kabat numbering)
# heavy: B1 heavy with H35G, E108G
# chain: B1 chain
# light: B1 light
# B10: CE115HA000 H35I one-arm antibody (antibody, human IgG1, kappa, L234A L235A, N297A, name in Kabat numbering)
# heavy: B1 heavy with H35I, E108G
# chain: B1 chain
# light: B1 light
# B11: CE115HA000 H35K one-arm antibody (antibody, human IgG1, kappa, L234A L235A, N297A, name in Kabat numbering)
# heavy: B1 heavy with H35K, E108G
# chain: B1 chain
# light: B1 light
# B12: CE115HA000 H35L one-arm antibody (antibody, human IgG1, kappa, L234A L235A, N297A, name in Kabat numbering)
# heavy: B1 heavy with H35L, E108G
# chain: B1 chain
# light: B1 light
# B13: CE115HA000 H35M one-arm antibody (antibody, human IgG1, kappa, L234A L235A, N297A, name in Kabat numbering)
# heavy: B1 heavy with H35M, E108G
# chain: B1 chain
# light: B1 light
# B14: CE115HA000 H35N one-arm antibody (antibody, human IgG1, kappa, L234A L235A, N297A, name in Kabat numbering)
# heavy: B1 heavy with H35N, E108G
# chain: B1 chain
# light: B1 light
# B15: CE115HA000 H35Q one-arm antibody (antibody, human IgG1, kappa, L234A L235A, N297A, name in Kabat numbering)
# heavy: B1 heavy with H35Q, E108G
# chain: B1 chain
# light: B1 light
# B16: CE115HA000 H35R one-arm antibody (antibody, human IgG1, kappa, L234A L235A, N297A, name in Kabat numbering)
# heavy: B1 heavy with H35R, E108G
# chain: B1 chain
# light: B1 light
# B17: CE115HA000 H35S one-arm antibody (antibody, human IgG1, kappa, L234A L235A, N297A, name in Kabat numbering)
# heavy: B1 heavy with H35S, E108G
# chain: B1 chain
# light: B1 light
# B18: CE115HA000 H35T one-arm antibody (antibody, human IgG1, kappa, L234A L235A, N297A, name in Kabat numbering)
# heavy: B1 heavy with H35T, E108G
# chain: B1 chain
# light: B1 light
# B19: CE115HA000 H35V one-arm antibody (antibody, human IgG1, kappa, L234A L235A, N297A, name in Kabat numbering)
# heavy: B1 heavy with H35V, E108G
# chain: B1 chain
# light: B1 light
# B20: CE115HA000 H35W one-arm antibody (antibody, human IgG1, kappa, L234A L235A, N297A, name in Kabat numbering)
# heavy: B1 heavy with H35W, E108G
# chain: B1 chain
# light: B1 light
# B21: CE115HA000 H35Y one-arm antibody (antibody, human IgG1, kappa, L234A L235A, N297A, name in Kabat numbering)
# heavy: B1 heavy with H35Y, E108G
# chain: B1 chain
# light: B1 light
# B22: CE115HA000 H96G one-arm antibody (antibody, human IgG1, kappa, L234A L235A, N297A, name in Kabat numbering)
# heavy: B1 heavy with H102G, E108G
# chain: B1 chain
# light: B1 light
# B23: CE115HA000 H96K one-arm antibody (antibody, human IgG1, kappa, L234A L235A, N297A, name in Kabat numbering)
# heavy: B1 heavy with H102K, E108G
# chain: B1 chain
# light: B1 light
# B24: CE115HA000 H96L one-arm antibody (antibody, human IgG1, kappa, L234A L235A, N297A, name in Kabat numbering)
# heavy: B1 heavy with H102L, E108G
# chain: B1 chain
# light: B1 light
# B25: CE115HA000 H96P one-arm antibody (antibody, human IgG1, kappa, L234A L235A, N297A, name in Kabat numbering)
# heavy: B1 heavy with H102P, E108G
# chain: B1 chain
# light: B1 light
# B26: CE115HA000 H96Q one-arm antibody (antibody, human IgG1, kappa, L234A L235A, N297A, name in Kabat numbering)
# heavy: B1 heavy with H102Q, E108G
# chain: B1 chain
# light: B1 light
# B27: CE115HA000 H96R one-arm antibody (antibody, human IgG1, kappa, L234A L235A, N297A, name in Kabat numbering)
# heavy: B1 heavy with H102R, E108G
# chain: B1 chain
# light: B1 light
# B28: CE115HA000 H96S one-arm antibody (antibody, human IgG1, kappa, L234A L235A, N297A, name in Kabat numbering)
# heavy: B1 heavy with H102S, E108G
# chain: B1 chain
# light: B1 light
# B29: CE115HA000 H96Y one-arm antibody (antibody, human IgG1, kappa, L234A L235A, N297A, name in Kabat numbering)
# heavy: B1 heavy with H102Y, E108G
# chain: B1 chain
# light: B1 light
# B30: CE115HA000 I51D one-arm antibody (antibody, human IgG1, kappa, L234A L235A, N297A, name in Kabat numbering)
# heavy: B1 heavy with I51D, E108G
# chain: B1 chain
# light: B1 light
# B31: CE115HA000 I51E one-arm antibody (antibody, human IgG1, kappa, L234A L235A, N297A, name in Kabat numbering)
# heavy: B1 heavy with I51E, E108G
# chain: B1 chain
# light: B1 light
# B32: CE115HA000 K43E one-arm antibody (antibody, human IgG1, kappa, L234A L235A, N297A, name in Kabat numbering)
# heavy: B1 heavy with K43E, E108G
# chain: B1 chain
# light: B1 light
# Target: T1, CD3ε homodimer protein (human, UniProt P07766 23-126, limits assumed, sulfo-tag or biotin label in the ECL assays; amine-coupled to the chip in SPR)
# T1 construct: also called human CD3ε homodimer protein; CD3 (CD3ε)
# Test: SPR Biacore T200; CD3ε homodimer on CM4 chip;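 also: Single-residue variant antibodies injected as analyte over CD3ε homodimer immobilized by amine coupling, run at 25 °C in HBS-EP+ buffer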
# T1 sequence (P07766 23-126 limits assumed): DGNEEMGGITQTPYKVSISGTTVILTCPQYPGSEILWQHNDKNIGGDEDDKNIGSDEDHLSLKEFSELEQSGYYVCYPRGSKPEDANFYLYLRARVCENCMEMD
row,Binder,ratio of amounts bound Z=Y/X (altered form / CE115HA000)
1,B1,0.26
2,B2,0.3
3,B3,0.27
4,B4,0.52
5,B5,0.23
6,B6,0.2
7,B7,0.19
8,B8,0.21
9,B9,0.22
10,B10,0.12
11,B11,0.15
12,B12,0.11
13,B13,0.29
14,B14,0.35
15,B15,0.13
16,B16,0.14

row,Binder,ratio of amounts bound Z=Y/X (altered form / CE115HA000)
1,B17,0.23
2,B18,0.26
3,B19,0.22
4,B20,0.22
5,B21,0.16
6,B22,0.43
7,B23,0.35
8,B24,0.14
9,B25,0.12
10,B26,0.42
11,B27,0.46
12,B28,0.44
13,B29,0.17
14,B30,0.29
15,B31,0.55
16,B32,0.9
